Measured values: the supplement of paper PMC10065799, “High-throughput profiling of sequence recognition by tyrosine kinases and SH2 domains using bacterial peptide display” (eLife, 2023)

Columns and labels:
EPHB1 = EPHB1 (UniProt P54762); assay: phosphorylation enrichment, bacterial display (enrichment ratio); higher = better substrate or ligand; peptides without Tyr show the background
Hck = Hck (UniProt P08631); assay: as above
Fes = Fes (UniProt P07332); assay: as above
Fyn = Fyn (UniProt P06241); assay: as above
Sequence of Fyn (P06241 whole entry, looked up): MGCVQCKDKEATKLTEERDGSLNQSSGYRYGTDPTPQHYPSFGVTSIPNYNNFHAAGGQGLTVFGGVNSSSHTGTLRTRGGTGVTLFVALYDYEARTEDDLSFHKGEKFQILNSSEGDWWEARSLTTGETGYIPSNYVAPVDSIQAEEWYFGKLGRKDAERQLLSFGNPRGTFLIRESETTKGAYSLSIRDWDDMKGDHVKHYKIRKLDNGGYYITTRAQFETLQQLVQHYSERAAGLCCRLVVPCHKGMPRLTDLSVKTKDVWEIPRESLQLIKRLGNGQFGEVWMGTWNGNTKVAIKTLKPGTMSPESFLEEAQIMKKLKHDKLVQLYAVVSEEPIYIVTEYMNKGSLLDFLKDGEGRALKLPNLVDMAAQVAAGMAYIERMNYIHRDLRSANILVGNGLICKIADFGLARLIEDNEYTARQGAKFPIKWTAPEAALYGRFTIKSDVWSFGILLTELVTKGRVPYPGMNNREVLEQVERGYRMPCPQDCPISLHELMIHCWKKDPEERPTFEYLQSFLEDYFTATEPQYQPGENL

FGFR3 = FGFR3 (UniProt P22607); assay: as above
Sequence of FGFR3 (P22607 whole entry, looked up): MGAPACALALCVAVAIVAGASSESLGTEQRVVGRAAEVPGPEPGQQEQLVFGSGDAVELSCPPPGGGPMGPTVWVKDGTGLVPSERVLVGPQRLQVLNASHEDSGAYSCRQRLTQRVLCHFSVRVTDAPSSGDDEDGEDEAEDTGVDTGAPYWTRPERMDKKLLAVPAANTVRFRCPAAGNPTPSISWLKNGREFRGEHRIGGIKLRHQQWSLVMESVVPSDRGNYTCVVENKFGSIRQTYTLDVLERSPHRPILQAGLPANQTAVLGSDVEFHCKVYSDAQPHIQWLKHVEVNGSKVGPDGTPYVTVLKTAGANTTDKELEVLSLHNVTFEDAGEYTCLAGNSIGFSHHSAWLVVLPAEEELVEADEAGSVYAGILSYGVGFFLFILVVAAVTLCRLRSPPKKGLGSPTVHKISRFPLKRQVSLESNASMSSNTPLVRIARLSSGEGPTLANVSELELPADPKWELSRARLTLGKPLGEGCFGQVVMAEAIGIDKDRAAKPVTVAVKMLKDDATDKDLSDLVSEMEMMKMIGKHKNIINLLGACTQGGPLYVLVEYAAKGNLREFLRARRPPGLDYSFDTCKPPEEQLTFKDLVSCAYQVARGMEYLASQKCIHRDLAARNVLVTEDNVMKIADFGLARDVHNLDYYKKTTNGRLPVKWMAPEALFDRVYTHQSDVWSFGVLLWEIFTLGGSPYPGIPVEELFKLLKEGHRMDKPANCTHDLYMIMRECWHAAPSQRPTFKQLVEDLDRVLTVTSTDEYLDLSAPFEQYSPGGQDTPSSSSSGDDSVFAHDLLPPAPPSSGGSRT

MERTK = MERTK (UniProt Q12866); assay: as above
Sequence of MERTK (Q12866 whole entry, looked up): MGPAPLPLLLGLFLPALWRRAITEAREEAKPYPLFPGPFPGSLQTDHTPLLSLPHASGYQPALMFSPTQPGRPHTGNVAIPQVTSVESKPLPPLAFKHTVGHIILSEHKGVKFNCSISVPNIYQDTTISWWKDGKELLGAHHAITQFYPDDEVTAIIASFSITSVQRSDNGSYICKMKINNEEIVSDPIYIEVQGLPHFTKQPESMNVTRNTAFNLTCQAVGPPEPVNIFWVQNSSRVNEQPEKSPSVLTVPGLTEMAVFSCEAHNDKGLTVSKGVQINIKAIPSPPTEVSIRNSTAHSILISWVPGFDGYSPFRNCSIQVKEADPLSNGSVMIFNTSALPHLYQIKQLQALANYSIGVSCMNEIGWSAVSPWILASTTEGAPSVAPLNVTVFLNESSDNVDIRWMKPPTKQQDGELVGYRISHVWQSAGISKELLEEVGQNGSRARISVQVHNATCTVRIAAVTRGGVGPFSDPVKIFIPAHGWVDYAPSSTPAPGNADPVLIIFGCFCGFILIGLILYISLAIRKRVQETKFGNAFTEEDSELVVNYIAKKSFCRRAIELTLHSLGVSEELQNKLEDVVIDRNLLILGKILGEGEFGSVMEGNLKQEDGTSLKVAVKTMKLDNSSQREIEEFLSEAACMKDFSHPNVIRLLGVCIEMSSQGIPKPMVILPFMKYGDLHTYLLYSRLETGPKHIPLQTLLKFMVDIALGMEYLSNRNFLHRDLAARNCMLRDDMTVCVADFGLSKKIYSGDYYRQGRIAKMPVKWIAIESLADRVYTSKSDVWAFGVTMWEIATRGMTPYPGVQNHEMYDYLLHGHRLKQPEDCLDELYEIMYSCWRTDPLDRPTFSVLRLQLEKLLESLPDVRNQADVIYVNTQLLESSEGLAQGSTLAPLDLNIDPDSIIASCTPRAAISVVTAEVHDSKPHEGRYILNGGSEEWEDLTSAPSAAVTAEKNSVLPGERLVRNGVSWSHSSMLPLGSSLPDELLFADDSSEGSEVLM

c-Src = assay: as above
Jak2 = Jak2 (UniProt O60674); assay: as above
Sequence of Jak2 (O60674 whole entry, looked up): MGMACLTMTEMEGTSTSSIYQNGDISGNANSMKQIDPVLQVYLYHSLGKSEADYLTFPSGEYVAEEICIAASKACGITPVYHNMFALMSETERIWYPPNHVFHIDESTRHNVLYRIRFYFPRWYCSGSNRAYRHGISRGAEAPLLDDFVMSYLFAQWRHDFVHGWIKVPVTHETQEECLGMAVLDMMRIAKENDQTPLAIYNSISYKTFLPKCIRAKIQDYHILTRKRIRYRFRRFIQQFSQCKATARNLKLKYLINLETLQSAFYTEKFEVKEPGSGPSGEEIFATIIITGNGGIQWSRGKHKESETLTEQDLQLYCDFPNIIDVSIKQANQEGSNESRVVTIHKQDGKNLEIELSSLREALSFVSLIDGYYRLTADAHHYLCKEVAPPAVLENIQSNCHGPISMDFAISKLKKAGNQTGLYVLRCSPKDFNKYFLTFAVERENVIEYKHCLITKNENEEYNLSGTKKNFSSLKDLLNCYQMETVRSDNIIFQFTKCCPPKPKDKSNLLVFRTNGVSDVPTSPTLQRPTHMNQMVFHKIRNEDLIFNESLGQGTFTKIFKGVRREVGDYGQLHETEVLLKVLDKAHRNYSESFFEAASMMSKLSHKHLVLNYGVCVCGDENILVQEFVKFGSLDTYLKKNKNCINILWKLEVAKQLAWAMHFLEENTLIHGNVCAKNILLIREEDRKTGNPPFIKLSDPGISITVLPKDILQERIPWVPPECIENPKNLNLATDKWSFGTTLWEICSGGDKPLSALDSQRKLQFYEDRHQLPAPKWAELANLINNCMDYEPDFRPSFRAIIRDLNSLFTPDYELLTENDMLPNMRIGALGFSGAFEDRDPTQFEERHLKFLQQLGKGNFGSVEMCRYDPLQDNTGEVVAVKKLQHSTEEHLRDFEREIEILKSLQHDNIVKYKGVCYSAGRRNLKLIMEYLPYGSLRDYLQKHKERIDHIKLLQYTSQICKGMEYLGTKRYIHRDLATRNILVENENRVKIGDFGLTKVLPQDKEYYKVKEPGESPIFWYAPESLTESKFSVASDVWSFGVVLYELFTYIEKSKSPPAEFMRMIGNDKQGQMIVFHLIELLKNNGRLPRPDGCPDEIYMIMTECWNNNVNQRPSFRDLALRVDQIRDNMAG

c-Abl (mouse) = assay: as above
FGFR1 = FGFR1 (UniProt P11362); assay: as above
Sequence of FGFR1 (P11362 whole entry, looked up): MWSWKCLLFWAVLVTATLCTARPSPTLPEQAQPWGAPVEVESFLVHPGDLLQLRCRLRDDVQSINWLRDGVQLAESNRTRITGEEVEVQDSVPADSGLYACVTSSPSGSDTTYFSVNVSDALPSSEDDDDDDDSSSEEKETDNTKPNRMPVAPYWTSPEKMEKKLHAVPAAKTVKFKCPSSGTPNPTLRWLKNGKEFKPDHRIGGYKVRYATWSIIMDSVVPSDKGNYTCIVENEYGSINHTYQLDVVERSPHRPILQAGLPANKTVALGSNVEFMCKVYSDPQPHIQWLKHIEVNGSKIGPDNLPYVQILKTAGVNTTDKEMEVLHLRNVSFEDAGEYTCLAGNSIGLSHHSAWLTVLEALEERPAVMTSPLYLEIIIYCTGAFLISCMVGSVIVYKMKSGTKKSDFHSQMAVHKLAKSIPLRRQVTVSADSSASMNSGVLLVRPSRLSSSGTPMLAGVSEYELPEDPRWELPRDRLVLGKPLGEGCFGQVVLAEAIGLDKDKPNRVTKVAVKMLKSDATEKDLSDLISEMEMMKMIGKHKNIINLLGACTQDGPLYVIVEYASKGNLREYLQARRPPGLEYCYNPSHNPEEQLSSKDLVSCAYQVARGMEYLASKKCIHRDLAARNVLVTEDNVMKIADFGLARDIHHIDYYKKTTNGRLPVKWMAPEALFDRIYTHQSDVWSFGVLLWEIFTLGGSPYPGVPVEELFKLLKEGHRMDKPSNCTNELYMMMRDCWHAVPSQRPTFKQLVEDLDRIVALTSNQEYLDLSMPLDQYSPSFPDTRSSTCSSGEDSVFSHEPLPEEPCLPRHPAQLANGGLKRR

EPHB2 = EPHB2 (UniProt P29323); assay: as above
AncSZ = assay: as above
Fer (mouse) = assay: as above
SHP2-C SH2 = assay: SH2 binding enrichment of the phosphorylated peptide, bacterial display (enrichment ratio); higher = better substrate or ligand; peptides without Tyr show the background
Grb2 SH2 = Grb2 SH2 (UniProt P62993); assay: as above
Sequence of Grb2 SH2 (P62993 whole entry, looked up): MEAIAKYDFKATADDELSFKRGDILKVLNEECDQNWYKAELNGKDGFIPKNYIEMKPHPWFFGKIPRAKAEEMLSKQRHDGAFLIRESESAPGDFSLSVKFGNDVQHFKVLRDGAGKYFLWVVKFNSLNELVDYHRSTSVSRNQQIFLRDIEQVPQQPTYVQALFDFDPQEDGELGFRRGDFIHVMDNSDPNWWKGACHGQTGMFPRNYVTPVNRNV

c-Src SH2 = assay: as above
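For SH2 binding enrichment of the phosphorylated peptide, bacterial display in this document: peptide library displayed on the E. coli surface as eCPX fusions, selected cells deep-sequenced, score is each peptide's frequency after selection divided by its frequency in the input.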
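For phosphorylation enrichment, bacterial display in this document: 11-residue human phosphosite peptides and single-mutation variants displayed on the E. coli surface, counted by deep sequencing, each peptide's frequency after selection divided by its frequency in the unselected input library; frequency after pTyr selection over input frequency; kinase dosed for 20-30% of maximal phosphorylation in three min.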

Sequence of Hck (P08631 whole entry, looked up): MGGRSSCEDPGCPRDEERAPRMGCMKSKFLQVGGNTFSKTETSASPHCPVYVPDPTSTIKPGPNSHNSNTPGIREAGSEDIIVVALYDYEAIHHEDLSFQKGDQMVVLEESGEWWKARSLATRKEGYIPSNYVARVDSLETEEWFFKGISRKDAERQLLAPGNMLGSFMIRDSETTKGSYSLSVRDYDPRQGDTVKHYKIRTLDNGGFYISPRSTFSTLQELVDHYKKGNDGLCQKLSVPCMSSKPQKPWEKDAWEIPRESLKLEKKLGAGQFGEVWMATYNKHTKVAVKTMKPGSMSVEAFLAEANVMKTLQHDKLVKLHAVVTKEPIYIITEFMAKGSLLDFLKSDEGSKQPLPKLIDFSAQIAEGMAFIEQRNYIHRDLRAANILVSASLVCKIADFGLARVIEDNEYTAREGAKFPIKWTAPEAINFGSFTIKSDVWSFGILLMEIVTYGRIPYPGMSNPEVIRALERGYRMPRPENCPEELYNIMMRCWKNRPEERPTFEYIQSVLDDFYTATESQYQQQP

| Sequence | phosphorylation enrichment (EPHB1) | phosphorylation enrichment (Hck) | phosphorylation enrichment (Fes) | phosphorylation enrichment (Fyn) | phosphorylation enrichment (FGFR3) | phosphorylation enrichment (MERTK) | phosphorylation enrichment (c-Src) | phosphorylation enrichment (Jak2) | phosphorylation enrichment (c-Abl (mouse)) | phosphorylation enrichment (FGFR1) | phosphorylation enrichment (EPHB2) | phosphorylation enrichment (AncSZ) | phosphorylation enrichment (Fer (mouse)) | SH2 binding enrichment (SHP2-C SH2) | SH2 binding enrichment (Grb2 SH2) | SH2 binding enrichment (c-Src SH2) |
| --- | --- | --- | --- | --- | --- | --- | --- | --- | --- | --- | --- | --- | --- | --- | --- | --- |
| KPRKPYTIKKP [BRD2_Y715] | 1.03 | 0.924 | 1.94 | 0.608 | 2.2 | 0.644 | 0.75 | 2.95 | 1.98 | 0.864 | 0.765 | 1.28 | 1.19 | 1.73 | 1.85 | 1.9 |
| SFPREYGSQEG [RBM10_Y48_YF] | 0.392 | 0.565 | 0.755 | 0.506 | 0.567 | 0.48 | 0.475 | 0.532 | 0.461 | 0.491 | 0.447 | 0.715 | 0.387 | 0.681 | 0.9 | 0.467 |
| DAAEDYAEGVC [DHODH_Y194_R199C] | 0.801 | 0.559 | 1.24 | 0.566 | 0.895 | 0.492 | 0.559 | 1.19 | 0.917 | 0.658 | 0.713 | 1.31 | 0.765 | 0.598 | 0.816 | 0.609 |
| ETKKQYDSFTF [TMED3_Y85_YF] | 0.422 | 0.457 | 0.9 | 0.517 | 0.643 | 0.424 | 0.564 | 0.76 | 0.681 | 0.411 | 0.397 | 0.7 | 0.407 | 0.609 | 0.79 | 0.513 |
| MKGEFYRFLAE [YWHAG_Y131_D129E_YF] | 0.426 | 0.414 | 0.902 | 0.392 | 0.529 | 0.372 | 0.382 | 0.907 | 0.627 | 0.336 | 0.455 | 0.77 | 0.4 | 0.464 | 0.712 | 0.351 |
| NTVLGYFIGRI [GARS1_Y408] | 0.48 | 0.495 | 1.09 | 0.427 | 0.617 | 0.423 | 0.348 | 0.735 | 0.634 | 0.443 | 0.44 | 0.973 | 0.479 | 1.08 | 1.14 | 0.637 |
| RRYVYYYSYLL [PTEN_Y177] | 0.672 | 0.764 | 0.768 | 0.771 | 1.11 | 3.68 | 0.79 | 0.986 | 1.39 | 1.88 | 0.829 | 0.814 | 0.518 | 0.65 | 0.631 | 0.474 |
| DFSLKYPTDIP [APC_Y1183_A1184P_YF] | 0.528 | 0.46 | 1.18 | 0.452 | 0.685 | 0.52 | 0.534 | 0.943 | 0.702 | 0.459 | 0.599 | 1.03 | 0.616 | 0.618 | 0.768 | 0.386 |
| DPNQQYFIAMD [TBX15_Y159_H156N_YF] | 0.466 | 0.493 | 0.934 | 0.444 | 0.866 | 0.356 | 0.482 | 0.911 | 0.672 | 0.892 | 0.443 | 1.07 | 0.403 | 0.554 | 0.754 | 0.597 |
| IIRQLYLKWHP [SACS_Y4333_R4331Q] | 0.469 | 1.12 | 1.02 | 0.38 | 0.604 | 1.08 | 0.509 | 1.01 | 0.608 | 0.473 | 0.444 | 0.888 | 0.4 | 1.59 | 1.77 | 1.47 |
| CKRQFYLYKGK [RSPO4_Y112] | 0.333 | 0.43 | 0.926 | 0.432 | 0.704 | 0.331 | 0.312 | 0.746 | 0.438 | 0.427 | 0.49 | 0.836 | 0.431 | 1.15 | 1.84 | 0.856 |
| LAGRYYALKSM [CKB_Y174] | 0.541 | 0.783 | 0.852 | 0.668 | 0.957 | 3.22 | 0.67 | 1.29 | 0.594 | 1.45 | 0.417 | 1.24 | 0.545 | 2.14 | 1.21 | 1.67 |
| HNLNYYKKTTN [FGFR3_Y648_D646N] | 0.337 | 0.258 | 0.507 | 0.491 | 0.531 | 0.479 | 0.429 | 0.648 | 0.554 | 0.468 | 0.361 | 0.791 | 0.461 | 0.683 | 0.738 | 0.479 |
| TTKAKYKTPTF [PLD2_Y573_YF] | 0.305 | 0.4 | 0.476 | 0.326 | 0.309 | 0.374 | 0.39 | 0.416 | 0.551 | 0.224 | 0.235 | 0.417 | 0.357 | 0.693 | 0.778 | 0.509 |
| HIAKGYRRDNP [HARS1_Y156_V155G] | 0.363 | 0.572 | 0.539 | 0.427 | 0.326 | 0.399 | 0.451 | 0.409 | 0.543 | 0.33 | 0.429 | 0.731 | 0.438 | 0.43 | 0.456 | 0.213 |
| EVKEAYMGNVL [ACAT1_Y90] | 0.341 | 0.42 | 0.848 | 0.474 | 0.505 | 0.444 | 0.402 | 0.626 | 0.506 | 0.596 | 0.593 | 0.804 | 0.528 | 0.699 | 0.881 | 0.542 |
| HKNNNYEPSLF [BRCA2_Y57_N60S] | 0.689 | 0.563 | 1 | 0.652 | 0.891 | 0.654 | 0.658 | 0.897 | 0.659 | 0.793 | 0.766 | 1.13 | 0.791 | 0.72 | 0.931 | 0.866 |
